Like-named read-outs stand apart in the source and are kept apart here.

Common to all, as to test: cryo-EM
The target in data set [1] is T1, LshCas13a (Leptotrichia shahii, UniProt P0DOC6 1-1389).
T1 sequence: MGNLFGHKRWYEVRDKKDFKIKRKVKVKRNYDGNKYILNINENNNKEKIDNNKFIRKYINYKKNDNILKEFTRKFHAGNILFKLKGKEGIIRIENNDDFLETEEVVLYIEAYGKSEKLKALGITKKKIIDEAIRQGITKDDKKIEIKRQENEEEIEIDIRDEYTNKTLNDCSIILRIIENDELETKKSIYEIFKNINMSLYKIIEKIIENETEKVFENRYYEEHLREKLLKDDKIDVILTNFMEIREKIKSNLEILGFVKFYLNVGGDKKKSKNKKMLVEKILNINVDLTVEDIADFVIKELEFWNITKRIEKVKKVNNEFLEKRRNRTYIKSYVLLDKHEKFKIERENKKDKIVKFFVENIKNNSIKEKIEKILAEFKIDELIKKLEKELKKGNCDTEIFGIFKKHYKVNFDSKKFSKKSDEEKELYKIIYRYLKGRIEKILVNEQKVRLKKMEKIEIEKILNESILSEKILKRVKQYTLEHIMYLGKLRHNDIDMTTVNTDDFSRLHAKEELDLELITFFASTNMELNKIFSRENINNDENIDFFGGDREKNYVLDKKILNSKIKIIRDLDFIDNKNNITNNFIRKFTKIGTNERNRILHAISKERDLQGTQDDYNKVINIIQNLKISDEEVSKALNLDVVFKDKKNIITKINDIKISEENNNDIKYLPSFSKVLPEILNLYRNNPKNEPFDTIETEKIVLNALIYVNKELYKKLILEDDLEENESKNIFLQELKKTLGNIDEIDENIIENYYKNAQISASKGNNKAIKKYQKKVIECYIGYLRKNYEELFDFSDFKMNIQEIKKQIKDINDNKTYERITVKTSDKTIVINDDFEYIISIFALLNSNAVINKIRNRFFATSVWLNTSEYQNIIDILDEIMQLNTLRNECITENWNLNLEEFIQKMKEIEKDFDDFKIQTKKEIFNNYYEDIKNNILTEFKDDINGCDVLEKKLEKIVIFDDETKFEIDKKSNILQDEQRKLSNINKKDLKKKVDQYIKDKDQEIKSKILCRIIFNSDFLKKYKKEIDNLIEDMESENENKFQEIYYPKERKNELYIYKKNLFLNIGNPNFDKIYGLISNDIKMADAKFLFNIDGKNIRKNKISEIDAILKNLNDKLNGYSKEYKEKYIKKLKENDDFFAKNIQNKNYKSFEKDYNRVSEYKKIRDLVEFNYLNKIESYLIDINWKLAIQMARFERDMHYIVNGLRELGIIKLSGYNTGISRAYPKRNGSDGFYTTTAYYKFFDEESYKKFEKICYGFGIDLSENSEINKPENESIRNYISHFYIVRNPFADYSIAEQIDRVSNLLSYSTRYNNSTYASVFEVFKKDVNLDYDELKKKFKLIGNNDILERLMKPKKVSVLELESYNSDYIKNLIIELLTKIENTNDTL

In data set [2] the target is T1, LshCas13a. This is another data set of the same source.
Data set [3] deals with T1, LshCas13a. The source holds these as a separate data set.

B1: Lsh crRNA (56-nt as named) + RNA6 (8-nt anti-tag) (mixed)
RNA 1: GGCCACCCCAAUAUCGAAGGGGACUAAAACUAGAUUGCUGUUCUACCAAGUAAUCCAU
RNA 2: GAUGGAUUACUUGGUAGAACAGCAAUCUAGUUUUAGU
As for B1, in data set [1], the binding result is given as “binds”.

B2: Lsh crRNA alone (structured_RNA)
RNA: B1 RNA 1
Regarding B2, the binding result in data set [2] is “binds”.

B3: Lsh crRNA + RNA4 (no anti-tag) (mixed)
RNA 1: B1 RNA 1
RNA 2: GAUGGAUUACUUGGUAGAACAGCAAUCUACAAAAUCA
Take B3: the binding result in data set [3] was “binds”.

Values taken from paper PMC8274241.
